Like-named read-outs stand apart in the source and are kept apart here.
Assays:
[1] = target: NS5BΔ21-5a fused to cyan or citrine fluorescent protein (hepatitis C virus genotype 5a (patient isolate)); experiment: FRET or BRET; in vitro; purified NS5BΔ21-cyan and NS5BΔ21-citrine of the same genotype mixed equimolar, 50 nM each; 10 mM NaCl and 4.5 mM Mg(CH3COO)2; excitation 432 nm, FRET ratio = emission 530 nm/478 nm, normalised against NS5BΔ21-1b; twelve independent experiments
[2] = target: NS5BΔ21-5a fused to cyan or citrine fluorescent protein (hepatitis C virus genotype 5a (patient isolate)); experiment: as above; remark: listed apart in the source

NS5BΔ21-5a fused to cyan or citrine fluorescent protein (enzyme)
FRET ratio relative to NS5BΔ21-1b [1]: < 50% | FRET ratio relative to NS5BΔ21-1b [2]: 40%
